Test results published in patent US20250340902A1, “GENE THERAPY FOR BVES-RELATED DISORDERS” (OHIO STATE INNOVATION FOUNDATION, priority 2022, published 2025).

Experiments:
Assay in all cases: anti-HA co-IP from muscle, MS; CTRL 0
[1] = molecular target: Vitamin K-dependent protein C (Mus musculus) (UniProt P33587)
[2] = molecular target: Monocarboxylate transporter 4 (Mus musculus) (UniProt P57787)
[3] = molecular target: Heparin cofactor 2 (Mus musculus) (UniProt P49182)
[4] = molecular target: ATPase family AAA domain-containing protein 3 (Mus musculus) (UniProt Q925I1)
Fibulin-1 (Mus musculus) = Fibulin-1 (Mus musculus) (UniProt Q08879)
Chain of Fibulin-1 (Mus musculus) (Q08879 30-705 limits assumed): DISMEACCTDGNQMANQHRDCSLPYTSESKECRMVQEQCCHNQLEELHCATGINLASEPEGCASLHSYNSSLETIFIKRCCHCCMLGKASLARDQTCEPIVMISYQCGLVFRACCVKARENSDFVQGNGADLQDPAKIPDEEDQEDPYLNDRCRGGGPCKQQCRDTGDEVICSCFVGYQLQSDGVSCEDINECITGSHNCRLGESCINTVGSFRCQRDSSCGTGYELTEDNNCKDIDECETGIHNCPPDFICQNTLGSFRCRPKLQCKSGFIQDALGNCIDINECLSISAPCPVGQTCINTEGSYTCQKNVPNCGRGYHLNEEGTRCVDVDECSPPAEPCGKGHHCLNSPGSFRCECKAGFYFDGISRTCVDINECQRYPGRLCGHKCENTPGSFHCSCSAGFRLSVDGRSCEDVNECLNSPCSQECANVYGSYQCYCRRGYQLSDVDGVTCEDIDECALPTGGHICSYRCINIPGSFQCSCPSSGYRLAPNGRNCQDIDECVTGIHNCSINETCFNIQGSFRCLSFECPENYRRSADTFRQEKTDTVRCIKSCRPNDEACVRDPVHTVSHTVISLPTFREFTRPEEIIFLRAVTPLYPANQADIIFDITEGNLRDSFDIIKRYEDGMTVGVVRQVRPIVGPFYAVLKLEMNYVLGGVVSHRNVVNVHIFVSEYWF

[5] = molecular target: E3 ubiquitin-protein ligase UBR4 (Mus musculus) (UniProt A2AN08)
[6] = molecular target: Delta-sarcoglycan (Mus musculus) (UniProt P82347)
[7] = molecular target: Microtubule-associated protein 4 (Mus musculus) (UniProt P27546)
Chain of Microtubule-associated protein 4 (Mus musculus) (P27546 2-1125 limits assumed): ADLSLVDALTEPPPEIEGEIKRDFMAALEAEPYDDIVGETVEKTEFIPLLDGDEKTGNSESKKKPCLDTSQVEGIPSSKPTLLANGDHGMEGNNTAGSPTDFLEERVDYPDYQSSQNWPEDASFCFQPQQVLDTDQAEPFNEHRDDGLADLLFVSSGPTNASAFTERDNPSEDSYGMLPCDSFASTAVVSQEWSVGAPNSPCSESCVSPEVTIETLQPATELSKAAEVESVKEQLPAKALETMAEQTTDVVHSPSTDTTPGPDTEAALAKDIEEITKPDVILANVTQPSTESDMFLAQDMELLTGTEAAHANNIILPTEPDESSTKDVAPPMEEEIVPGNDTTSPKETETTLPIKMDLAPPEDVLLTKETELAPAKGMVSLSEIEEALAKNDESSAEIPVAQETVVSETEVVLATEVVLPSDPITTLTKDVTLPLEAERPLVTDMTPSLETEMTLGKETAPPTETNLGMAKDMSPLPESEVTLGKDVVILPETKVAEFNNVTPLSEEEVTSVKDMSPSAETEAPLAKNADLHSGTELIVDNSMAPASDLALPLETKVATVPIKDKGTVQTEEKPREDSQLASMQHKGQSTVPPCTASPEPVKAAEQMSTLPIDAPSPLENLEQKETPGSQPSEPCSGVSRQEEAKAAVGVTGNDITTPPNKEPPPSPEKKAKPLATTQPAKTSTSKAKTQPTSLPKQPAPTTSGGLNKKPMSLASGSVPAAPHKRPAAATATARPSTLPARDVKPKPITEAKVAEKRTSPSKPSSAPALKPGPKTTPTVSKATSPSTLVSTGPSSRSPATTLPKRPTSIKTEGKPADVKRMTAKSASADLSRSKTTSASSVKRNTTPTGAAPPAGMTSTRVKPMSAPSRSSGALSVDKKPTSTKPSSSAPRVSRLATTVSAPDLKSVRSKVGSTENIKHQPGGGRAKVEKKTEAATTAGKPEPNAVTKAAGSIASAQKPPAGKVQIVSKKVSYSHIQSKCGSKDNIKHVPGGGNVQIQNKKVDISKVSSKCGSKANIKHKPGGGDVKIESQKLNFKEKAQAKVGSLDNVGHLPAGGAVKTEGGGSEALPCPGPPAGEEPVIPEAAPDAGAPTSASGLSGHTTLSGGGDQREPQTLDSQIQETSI

[8] = molecular target: Obg-like ATPase 1 (Mus musculus) (UniProt Q9CZ30)
[9] = molecular target: NADH dehydrogenase [ubiquinone] iron-sulfur protein 3, mitochondrial (Mus musculus) (UniProt Q9DCT2)
[10] = molecular target: Transmembrane protein 201 (Mus musculus) (UniProt A2A8U2)
Ankyrin-1 (Mus musculus) = Ankyrin-1 (Mus musculus) (UniProt Q02357)
[11] = molecular target: Keratin, type II cytoskeletal 7 (Mus musculus) (UniProt Q9DCV7)
[12] = molecular target: N-alpha-acetyltransferase 50 (Mus musculus) (UniProt Q6PGB6)
Elongin-A (Mus musculus) = Elongin-A (Mus musculus) (UniProt Q8CB77)
[13] = molecular target: Anoctamin-5 (Mus musculus) (UniProt Q75UR0)
[14] = molecular target: Sodium/calcium exchanger 3 (Mus musculus) (UniProt S4R2P9)
[15] = molecular target: Methylcrotonoyl-CoA carboxylase subunit alpha, mitochondrial (Mus musculus) (UniProt Q99MR8)
[16] = molecular target: Nuclear speckle splicing regulatory protein 1 (Mus musculus) (UniProt Q5NCR9)
[17] = molecular target: NADH dehydrogenase [ubiquinone] flavoprotein 1, mitochondrial (Mus musculus) (UniProt Q91YT0)
[18] = molecular target: ATP-binding cassette sub-family F member 2 (Mus musculus) (UniProt Q99LE6)
Chain of ATP-binding cassette sub-family F member 2 (Mus musculus) (Q99LE6 whole entry): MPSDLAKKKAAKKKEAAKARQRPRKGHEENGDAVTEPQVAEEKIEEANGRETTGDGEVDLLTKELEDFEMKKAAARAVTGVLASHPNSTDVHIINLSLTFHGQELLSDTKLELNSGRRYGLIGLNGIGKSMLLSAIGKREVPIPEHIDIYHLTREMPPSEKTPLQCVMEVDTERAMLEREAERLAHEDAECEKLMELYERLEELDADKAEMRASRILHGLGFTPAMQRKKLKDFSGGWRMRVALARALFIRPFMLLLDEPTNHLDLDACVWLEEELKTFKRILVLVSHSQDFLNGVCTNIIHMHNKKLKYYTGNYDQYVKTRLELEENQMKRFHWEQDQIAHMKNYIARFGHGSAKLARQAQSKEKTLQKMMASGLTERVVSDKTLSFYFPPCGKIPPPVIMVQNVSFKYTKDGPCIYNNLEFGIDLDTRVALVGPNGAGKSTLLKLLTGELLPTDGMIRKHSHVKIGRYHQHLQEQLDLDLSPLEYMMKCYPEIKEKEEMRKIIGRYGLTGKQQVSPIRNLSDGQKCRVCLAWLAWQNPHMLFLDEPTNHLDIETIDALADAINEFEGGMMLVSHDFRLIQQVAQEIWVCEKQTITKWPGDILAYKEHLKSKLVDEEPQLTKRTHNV

[19] = molecular target: 60S ribosomal protein L15 (Mus musculus) (UniProt Q9CZM2)
[20] = molecular target: Multidrug resistance-associated protein 1 (Mus musculus) (UniProt O35379)
Chain of Multidrug resistance-associated protein 1 (Mus musculus) (O35379 whole entry): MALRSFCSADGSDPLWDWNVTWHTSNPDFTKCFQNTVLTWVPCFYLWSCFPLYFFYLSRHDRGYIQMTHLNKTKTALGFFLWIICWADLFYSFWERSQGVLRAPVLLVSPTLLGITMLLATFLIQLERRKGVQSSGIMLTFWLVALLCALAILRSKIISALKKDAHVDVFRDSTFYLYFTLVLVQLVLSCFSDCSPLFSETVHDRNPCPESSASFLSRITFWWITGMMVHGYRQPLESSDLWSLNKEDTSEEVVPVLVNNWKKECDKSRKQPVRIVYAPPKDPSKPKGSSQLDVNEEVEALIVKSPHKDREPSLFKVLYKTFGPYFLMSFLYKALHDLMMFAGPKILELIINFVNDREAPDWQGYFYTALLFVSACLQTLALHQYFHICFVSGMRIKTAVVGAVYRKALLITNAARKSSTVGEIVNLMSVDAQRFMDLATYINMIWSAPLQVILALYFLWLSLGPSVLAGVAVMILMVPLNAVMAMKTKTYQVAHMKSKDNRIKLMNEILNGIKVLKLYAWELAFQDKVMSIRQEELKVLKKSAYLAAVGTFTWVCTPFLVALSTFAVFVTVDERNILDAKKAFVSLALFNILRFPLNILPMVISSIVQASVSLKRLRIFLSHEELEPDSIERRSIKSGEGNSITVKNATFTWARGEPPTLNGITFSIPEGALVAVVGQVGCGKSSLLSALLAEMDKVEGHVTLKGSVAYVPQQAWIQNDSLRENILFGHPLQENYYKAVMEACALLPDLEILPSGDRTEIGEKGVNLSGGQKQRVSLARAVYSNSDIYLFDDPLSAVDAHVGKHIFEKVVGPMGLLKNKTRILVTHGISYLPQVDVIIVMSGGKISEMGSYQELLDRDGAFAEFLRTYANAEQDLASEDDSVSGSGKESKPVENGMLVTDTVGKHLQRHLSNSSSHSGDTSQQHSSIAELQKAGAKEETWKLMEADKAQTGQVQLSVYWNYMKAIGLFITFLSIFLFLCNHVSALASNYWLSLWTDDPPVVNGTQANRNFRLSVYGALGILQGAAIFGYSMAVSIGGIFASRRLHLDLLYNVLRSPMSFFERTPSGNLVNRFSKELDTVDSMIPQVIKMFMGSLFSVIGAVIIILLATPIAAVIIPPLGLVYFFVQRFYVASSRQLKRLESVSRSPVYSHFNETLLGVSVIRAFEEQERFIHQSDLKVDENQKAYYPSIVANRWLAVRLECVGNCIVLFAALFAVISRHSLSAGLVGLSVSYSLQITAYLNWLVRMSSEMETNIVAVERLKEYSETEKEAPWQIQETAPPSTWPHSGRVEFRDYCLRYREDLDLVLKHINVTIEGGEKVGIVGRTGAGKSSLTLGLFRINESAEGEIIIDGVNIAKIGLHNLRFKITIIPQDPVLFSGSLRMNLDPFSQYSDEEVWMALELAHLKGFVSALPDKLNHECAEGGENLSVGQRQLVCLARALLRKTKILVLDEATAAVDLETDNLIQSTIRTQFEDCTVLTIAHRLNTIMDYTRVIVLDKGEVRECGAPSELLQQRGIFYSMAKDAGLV

[21] = molecular target: Leucine-rich PPR motif-containing protein, mitochondrial (Mus musculus) (UniProt Q6PB66)
[22] = molecular target: Proliferation-associated protein 2G4 (Mus musculus) (UniProt P50580)
[23] = molecular target: Band 3 anion transport protein (Mus musculus) (UniProt P04919)
Chain of Band 3 anion transport protein (Mus musculus) (P04919 whole entry): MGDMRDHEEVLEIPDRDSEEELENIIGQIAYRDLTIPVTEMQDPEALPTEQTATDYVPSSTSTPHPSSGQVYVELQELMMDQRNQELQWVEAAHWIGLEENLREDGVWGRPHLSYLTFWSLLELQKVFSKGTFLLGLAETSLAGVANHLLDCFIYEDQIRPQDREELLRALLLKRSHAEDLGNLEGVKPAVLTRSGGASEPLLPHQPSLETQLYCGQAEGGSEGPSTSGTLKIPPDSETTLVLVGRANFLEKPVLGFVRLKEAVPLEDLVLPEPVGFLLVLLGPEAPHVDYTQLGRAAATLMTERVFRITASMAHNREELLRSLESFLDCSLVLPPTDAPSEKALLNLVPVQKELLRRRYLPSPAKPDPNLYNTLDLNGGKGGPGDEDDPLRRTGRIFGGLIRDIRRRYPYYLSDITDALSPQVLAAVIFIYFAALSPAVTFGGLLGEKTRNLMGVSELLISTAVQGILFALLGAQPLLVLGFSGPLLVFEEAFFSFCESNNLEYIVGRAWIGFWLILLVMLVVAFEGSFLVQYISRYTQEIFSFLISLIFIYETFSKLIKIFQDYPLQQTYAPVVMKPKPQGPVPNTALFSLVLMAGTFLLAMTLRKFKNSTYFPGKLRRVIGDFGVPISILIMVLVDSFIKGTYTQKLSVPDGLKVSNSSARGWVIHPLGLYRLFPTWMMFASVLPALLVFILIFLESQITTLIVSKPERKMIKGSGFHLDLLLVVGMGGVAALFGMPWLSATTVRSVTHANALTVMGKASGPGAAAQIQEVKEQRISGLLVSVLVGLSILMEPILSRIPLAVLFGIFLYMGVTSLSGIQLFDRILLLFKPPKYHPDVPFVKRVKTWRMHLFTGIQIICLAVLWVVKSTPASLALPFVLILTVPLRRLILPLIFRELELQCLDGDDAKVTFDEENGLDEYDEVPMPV

Sarcospan (Mus musculus) = Sarcospan (Mus musculus) (UniProt Q62147)
Dysferlin (Mus musculus) = Dysferlin (Mus musculus) (UniProt Q9ESD7)
[24] = molecular target: Glutathione S-transferase LANCL1 (Mus musculus) (UniProt O89112)
[25] = molecular target: Eukaryotic translation initiation factor 3 subunit H (Mus musculus) (UniProt Q91WK2)
[26] = molecular target: Triggering receptor expressed on myeloid cells 2 (Mus musculus) (UniProt Q99NH8)
Chain of Triggering receptor expressed on myeloid cells 2 (Mus musculus) (Q99NH8 19-227 limits assumed): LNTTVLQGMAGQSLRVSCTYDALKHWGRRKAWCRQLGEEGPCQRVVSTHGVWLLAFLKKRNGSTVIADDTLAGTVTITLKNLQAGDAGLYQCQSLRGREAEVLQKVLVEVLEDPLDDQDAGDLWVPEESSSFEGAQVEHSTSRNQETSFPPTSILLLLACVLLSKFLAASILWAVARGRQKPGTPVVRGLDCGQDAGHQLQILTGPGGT

[27] = molecular target: DnaJ homolog subfamily B member 2 (Mus musculus) (UniProt Q9QYI5)
[28] = molecular target: Translocation protein SEC62 (Mus musculus) (UniProt Q8BU14)
[29] = molecular target: Sodium/calcium exchanger 1 (Mus musculus) (UniProt P70414)
Myocilin (Mus musculus) = Myocilin (Mus musculus) (UniProt O70624)
[30] = molecular target: Haloacid dehalogenase-like hydrolase domain-containing protein 2 (Mus musculus) (UniProt Q3UGR5)
[31] = molecular target: Collagen alpha-1(XV) chain (Mus musculus) (UniProt O35206)
[32] = molecular target: Spectrin alpha chain, erythrocytic 1 (Mus musculus) (UniProt P08032)
Cullin-2 (Mus musculus) = Cullin-2 (Mus musculus) (UniProt Q9D4H8)

AAV9-BVES-HA (IP-MS count) [1]: 2
AAV9-BVES-HA (IP-MS count) [2]: 12
AAV9-BVES-HA (IP-MS count) [3]: 4
AAV9-BVES-HA (IP-MS count) [4]: 3
AAV9-BVES-HA (IP-MS count) (Fibulin-1 (Mus musculus)): 3
AAV9-BVES-HA (IP-MS count) [5]: 4
AAV9-BVES-HA (IP-MS count) [6]: 5
AAV9-BVES-HA (IP-MS count) [7]: 2
AAV9-BVES-HA (IP-MS count) [8]: 2
AAV9-BVES-HA (IP-MS count) [9]: 4
AAV9-BVES-HA (IP-MS count) [10]: 2
AAV9-BVES-HA (IP-MS count) (Ankyrin-1 (Mus musculus)): 31
AAV9-BVES-HA (IP-MS count) [11]: 17
AAV9-BVES-HA (IP-MS count) [12]: 2
AAV9-BVES-HA (IP-MS count) (Elongin-A (Mus musculus)): 3
AAV9-BVES-HA (IP-MS count) [13]: 2
AAV9-BVES-HA (IP-MS count) [14]: 3
AAV9-BVES-HA (IP-MS count) [15]: 3
AAV9-BVES-HA (IP-MS count) [16]: 2
AAV9-BVES-HA (IP-MS count) [17]: 3
AAV9-BVES-HA (IP-MS count) [18]: 2
AAV9-BVES-HA (IP-MS count) [19]: 4
AAV9-BVES-HA (IP-MS count) [20]: 2
AAV9-BVES-HA (IP-MS count) [21]: 8
AAV9-BVES-HA (IP-MS count) [22]: 7
AAV9-BVES-HA (IP-MS count) [23]: 4
AAV9-BVES-HA (IP-MS count) (Sarcospan (Mus musculus)): 2
AAV9-BVES-HA (IP-MS count) (Dysferlin (Mus musculus)): 12
AAV9-BVES-HA (IP-MS count) [24]: 2
AAV9-BVES-HA (IP-MS count) [25]: 2
AAV9-BVES-HA (IP-MS count) [26]: 2
AAV9-BVES-HA (IP-MS count) [27]: 2
AAV9-BVES-HA (IP-MS count) [28]: 2
AAV9-BVES-HA (IP-MS count) [29]: 2
AAV9-BVES-HA (IP-MS count) (Myocilin (Mus musculus)): 2
AAV9-BVES-HA (IP-MS count) [30]: 3
AAV9-BVES-HA (IP-MS count) [31]: 7
AAV9-BVES-HA (IP-MS count) [32]: 27
AAV9-BVES-HA (IP-MS count) (Cullin-2 (Mus musculus)): 3
Substance: human BVES fused with 3xHA tag (from UniProt Q8NE79 1-360)
